Test results taken from paper PMC10197580.

Target: T1, CST with the His6-MBP tag cleaved (human), Q2NKJ3
T1 chain 1: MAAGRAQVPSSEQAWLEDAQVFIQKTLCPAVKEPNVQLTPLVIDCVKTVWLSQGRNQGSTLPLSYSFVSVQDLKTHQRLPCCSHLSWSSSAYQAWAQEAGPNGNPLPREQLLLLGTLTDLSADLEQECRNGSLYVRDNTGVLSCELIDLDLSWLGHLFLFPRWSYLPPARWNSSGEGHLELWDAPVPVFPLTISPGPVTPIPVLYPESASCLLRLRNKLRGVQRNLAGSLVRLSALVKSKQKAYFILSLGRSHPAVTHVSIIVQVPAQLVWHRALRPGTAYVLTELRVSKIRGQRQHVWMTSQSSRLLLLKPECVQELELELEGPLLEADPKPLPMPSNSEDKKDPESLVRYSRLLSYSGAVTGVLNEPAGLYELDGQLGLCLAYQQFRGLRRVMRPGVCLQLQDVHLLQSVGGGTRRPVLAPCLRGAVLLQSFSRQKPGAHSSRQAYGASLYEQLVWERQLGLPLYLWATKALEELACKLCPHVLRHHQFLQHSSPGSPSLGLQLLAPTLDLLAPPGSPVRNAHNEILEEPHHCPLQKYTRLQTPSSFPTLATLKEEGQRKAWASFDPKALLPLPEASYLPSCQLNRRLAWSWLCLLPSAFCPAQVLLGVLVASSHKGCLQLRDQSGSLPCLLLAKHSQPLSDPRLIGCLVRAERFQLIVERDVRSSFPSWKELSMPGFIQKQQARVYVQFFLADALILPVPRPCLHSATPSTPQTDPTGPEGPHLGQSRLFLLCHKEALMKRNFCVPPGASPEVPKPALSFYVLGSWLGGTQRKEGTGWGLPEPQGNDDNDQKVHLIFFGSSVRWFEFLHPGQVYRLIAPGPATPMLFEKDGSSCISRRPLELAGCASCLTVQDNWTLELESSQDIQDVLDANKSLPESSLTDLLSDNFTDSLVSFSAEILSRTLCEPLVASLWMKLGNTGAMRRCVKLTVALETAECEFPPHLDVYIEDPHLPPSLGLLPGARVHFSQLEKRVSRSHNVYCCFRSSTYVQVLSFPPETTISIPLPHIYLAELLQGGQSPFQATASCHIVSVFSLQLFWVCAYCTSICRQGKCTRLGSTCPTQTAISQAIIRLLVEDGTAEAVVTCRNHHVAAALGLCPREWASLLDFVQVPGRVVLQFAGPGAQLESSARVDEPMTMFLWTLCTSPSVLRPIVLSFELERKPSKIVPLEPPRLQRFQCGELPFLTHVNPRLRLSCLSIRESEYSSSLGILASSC
T1 chain 2: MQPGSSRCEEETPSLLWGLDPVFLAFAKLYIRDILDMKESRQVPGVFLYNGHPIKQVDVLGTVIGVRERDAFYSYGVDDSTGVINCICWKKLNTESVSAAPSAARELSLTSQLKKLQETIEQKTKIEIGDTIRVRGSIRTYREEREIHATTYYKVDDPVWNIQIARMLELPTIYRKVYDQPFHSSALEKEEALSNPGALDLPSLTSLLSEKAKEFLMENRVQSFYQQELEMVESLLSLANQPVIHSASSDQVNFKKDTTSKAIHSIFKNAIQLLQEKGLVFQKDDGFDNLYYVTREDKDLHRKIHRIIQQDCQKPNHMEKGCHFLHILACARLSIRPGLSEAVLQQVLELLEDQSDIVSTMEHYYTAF
T1 chain 3: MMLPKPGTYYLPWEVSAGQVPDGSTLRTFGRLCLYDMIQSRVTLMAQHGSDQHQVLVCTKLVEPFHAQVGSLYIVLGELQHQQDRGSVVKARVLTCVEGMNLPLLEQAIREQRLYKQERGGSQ
Experiment: negative-stain EM
Conditions: remark: other sources report otherwise

B1: CST with the His6-MBP tag cleaved, Q2NKJ3;Q9H668;Q86WV5 (complex)
chain 1: MAAGRAQVPSSEQAWLEDAQVFIQKTLCPAVKEPNVQLTPLVIDCVKTVWLSQGRNQGSTLPLSYSFVSVQDLKTHQRLPCCSHLSWSSSAYQAWAQEAGPNGNPLPREQLLLLGTLTDLSADLEQECRNGSLYVRDNTGVLSCELIDLDLSWLGHLFLFPRWSYLPPARWNSSGEGHLELWDAPVPVFPLTISPGPVTPIPVLYPESASCLLRLRNKLRGVQRNLAGSLVRLSALVKSKQKAYFILSLGRSHPAVTHVSIIVQVPAQLVWHRALRPGTAYVLTELRVSKIRGQRQHVWMTSQSSRLLLLKPECVQELELELEGPLLEADPKPLPMPSNSEDKKDPESLVRYSRLLSYSGAVTGVLNEPAGLYELDGQLGLCLAYQQFRGLRRVMRPGVCLQLQDVHLLQSVGGGTRRPVLAPCLRGAVLLQSFSRQKPGAHSSRQAYGASLYEQLVWERQLGLPLYLWATKALEELACKLCPHVLRHHQFLQHSSPGSPSLGLQLLAPTLDLLAPPGSPVRNAHNEILEEPHHCPLQKYTRLQTPSSFPTLATLKEEGQRKAWASFDPKALLPLPEASYLPSCQLNRRLAWSWLCLLPSAFCPAQVLLGVLVASSHKGCLQLRDQSGSLPCLLLAKHSQPLSDPRLIGCLVRAERFQLIVERDVRSSFPSWKELSMPGFIQKQQARVYVQFFLADALILPVPRPCLHSATPSTPQTDPTGPEGPHLGQSRLFLLCHKEALMKRNFCVPPGASPEVPKPALSFYVLGSWLGGTQRKEGTGWGLPEPQGNDDNDQKVHLIFFGSSVRWFEFLHPGQVYRLIAPGPATPMLFEKDGSSCISRRPLELAGCASCLTVQDNWTLELESSQDIQDVLDANKSLPESSLTDLLSDNFTDSLVSFSAEILSRTLCEPLVASLWMKLGNTGAMRRCVKLTVALETAECEFPPHLDVYIEDPHLPPSLGLLPGARVHFSQLEKRVSRSHNVYCCFRSSTYVQVLSFPPETTISIPLPHIYLAELLQGGQSPFQATASCHIVSVFSLQLFWVCAYCTSICRQGKCTRLGSTCPTQTAISQAIIRLLVEDGTAEAVVTCRNHHVAAALGLCPREWASLLDFVQVPGRVVLQFAGPGAQLESSARVDEPMTMFLWTLCTSPSVLRPIVLSFELERKPSKIVPLEPPRLQRFQCGELPFLTHVNPRLRLSCLSIRESEYSSSLGILASSC
chain 2: MQPGSSRCEEETPSLLWGLDPVFLAFAKLYIRDILDMKESRQVPGVFLYNGHPIKQVDVLGTVIGVRERDAFYSYGVDDSTGVINCICWKKLNTESVSAAPSAARELSLTSQLKKLQETIEQKTKIEIGDTIRVRGSIRTYREEREIHATTYYKVDDPVWNIQIARMLELPTIYRKVYDQPFHSSALEKEEALSNPGALDLPSLTSLLSEKAKEFLMENRVQSFYQQELEMVESLLSLANQPVIHSASSDQVNFKKDTTSKAIHSIFKNAIQLLQEKGLVFQKDDGFDNLYYVTREDKDLHRKIHRIIQQDCQKPNHMEKGCHFLHILACARLSIRPGLSEAVLQQVLELLEDQSDIVSTMEHYYTAF
chain 3: MMLPKPGTYYLPWEVSAGQVPDGSTLRTFGRLCLYDMIQSRVTLMAQHGSDQHQVLVCTKLVEPFHAQVGSLYIVLGELQHQQDRGSVVKARVLTCVEGMNLPLLEQAIREQRLYKQERGGSQ
stoichiometry N: 2
